The text below walks through data of publication PMC12248280.

This test addresses hDPP4-Fc (human DPP4 residues 39 to 766 fused at its C terminus to the Fc domain of human IgG) (human) (UniProt P27487). Put plainly: BLI. A general note: BLI is a label-free optical method that tracks binding on a fibre tip over time.
Chain of UniProt P27487 (P27487 39-766): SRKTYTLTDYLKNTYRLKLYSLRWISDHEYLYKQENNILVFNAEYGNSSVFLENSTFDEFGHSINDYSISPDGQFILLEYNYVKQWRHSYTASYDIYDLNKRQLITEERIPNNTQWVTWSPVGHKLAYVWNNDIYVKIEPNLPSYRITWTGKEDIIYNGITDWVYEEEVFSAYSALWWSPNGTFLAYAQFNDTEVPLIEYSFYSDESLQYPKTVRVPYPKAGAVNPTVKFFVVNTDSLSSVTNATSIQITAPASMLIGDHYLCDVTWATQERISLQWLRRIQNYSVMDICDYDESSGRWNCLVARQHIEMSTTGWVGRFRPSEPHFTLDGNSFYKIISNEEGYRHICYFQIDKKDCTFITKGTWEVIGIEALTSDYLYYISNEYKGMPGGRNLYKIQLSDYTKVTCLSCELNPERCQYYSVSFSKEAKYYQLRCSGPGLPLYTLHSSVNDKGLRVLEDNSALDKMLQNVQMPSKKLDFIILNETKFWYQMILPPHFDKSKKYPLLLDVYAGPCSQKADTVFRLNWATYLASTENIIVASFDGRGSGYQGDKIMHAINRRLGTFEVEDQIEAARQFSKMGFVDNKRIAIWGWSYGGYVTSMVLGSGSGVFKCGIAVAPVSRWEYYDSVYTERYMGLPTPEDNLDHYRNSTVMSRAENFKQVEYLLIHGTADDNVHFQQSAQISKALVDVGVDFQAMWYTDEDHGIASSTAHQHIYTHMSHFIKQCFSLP

With “GD-BatCoV-S (GD-BatCoV S-trimer, GD-BatCoV-S-6P) (domain or fragment)”, the Kd (usually a measure of binding affinity in units of concentration) amounted to 5.3 nM.
